Results reported in KR20200110551A.

Assays:
[1] = target: FMDV 혈청형 O (진천주) (Foot and Mouth Disease Virus serotype O (Jincheon strain)); assay: cell-based or functional assay
[2] = target: FMDV 혈청형 O (진천주) (Foot and Mouth Disease Virus serotype O (Jincheon strain))

B1: 단클론항체 8B87 (antibody, V domains shown)
VH: KKPGETVKISCKASGYTFTNYGVSWVKQVPGKGLKWMGWINTNTGKPAYADDFKGRFAFYLDTSASTAYLQISNLKNEDEATYFCVIYHDYLWFAYWGQGTLITVSA
VL: NIVLTQSPASLAVSLGQRATISCRASNSVDTYGNSFMHWYQQRPGQPPKLLIFLASDLESGVPGRFRGSGSRTDFTLTIDPVEADDAATYYCQQNYADPWTFGGGTKLEIK
VNT titer [1]: 64
ELISA screening plate (O.D 450nm) [2]: 2.23 O.D 450nm
